In the nanobody polyreactivity screen of Harvey et al. (2022):

Assay: yeast display, Sf9 membrane polyspecificity reagent, FACS + sequencing; frameworks hold sequencing errors
In short: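 Sorting gates, low and high (top ~1%), were placed on anti-HA fluorescence to track expression and on streptavidin fluorescence to track reagent binding. A clone's polyreactivity label is taken from the gate it came out of. The reagent was 10% biotinylated, detergent-solubilized Sf9 membrane, applied for 1 hour at 4 °C to galactose-induced yeast display cells.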

Sequence	polyreactivity (PSR sort gate)
QVQLVESGGGLVQAGGSLRLSCAASGSTGVNTMGWYRQAPGKERQLVAAIRATGGSTYYADSVKGRFTISRENAKNTVYFQMNSLKPEDTAVYYCNAYRRSYRWYGDLGEYWGQGTQVTVSS	high polyreactivity
QVQLVESGGGLVQAGGSLRLSCAASGSTIAYYAMGWDRQAPGKERELVAVINGITGSTYYADSVKGRFTISRDNEKNTVYLQMNSLKPEDTAVYYCNADYADVTDEGDYWGQGTQVTVSS	low polyreactivity
QVQLVESGGGLVQAGGSLRLSCAASGSTIDIYAMGWYRQAPGKERELVAAISNSGDTYYADSVKGRFTISRDNAKNTVYLQMNSLKPEDTAVYYCAAPAAGDEYDYWGQGTQVTVSS	high polyreactivity
QVQLVESGGGLVQAGGSLRLSCAASGSTIDTNAMGWYRQAPGTDRELVAAITSGGNTYADSVKGRFTISRDNAKNTVYLQMNSLKPEDTAVYYCAAEDVYTGWYDYCGQGTQVTVSS	low polyreactivity
QVQLVESGGGLVQAGGSLRLSCAASGSTIDWYGMGWYRQAPGKERELVAAINFSDGSTYYADSVKGRFTISRDNAKNTVYLQMNSLKPEDTAVYYCAAFTPSYGGRDYWGQGTQVTVSS	low polyreactivity
QVQLVESGGGLVQAGGSLRLSCAASGSTIDYYTMGWYRQEPGKERELVAAISWSGGNTYYADSVKGRFTISRDNAKNTVYLQMNSLKPEDTAVYYCNRVNAYWLRYDYWGQGTQVSVSS	high polyreactivity
QVQLVESGGGLVQAGGSLRLSCAASGSTIEFNAMGWYRPAPGKERELVAAISGSGASTYYADSVKGRFTISRDNAKNTVYLQMNSLTPEVTAVYYCNADSLYYDYQTVDVQALDYWGQATQVTVSS	low polyreactivity
QVQLVESGGGLVQAGGSLRLSCAASGSTIEPNAMGWYRPAPGKERELVAAINYSGGRTYYADSVKGRFTISRDNAKNTVYLQMNSLKPEDTAVYYCAATSIGRYKSRLDYWGQGTQVTVSS	high polyreactivity
QVQLVESGGGLVQAGGSLRLSCAASGSTIGDNAMGWYRQAPGKERELVASITGGGGSTYYADSVKGRFTISRDNAKNTVYLQMNSLKPEDTAVYYCAAVYQSYTYYLPKYWSFYQNDYWGQGTQVTVSS	low polyreactivity
QVQLVESGGGLVQAGGSLRLSCAASGSTIGFYAMGWYRQAPGKERELVAVISSSSSTNYADSVKGRFTISRDNAKNTVYLQMNSLKPKIPAVYYCNAKWTTLFDYWGQGTQVTVSS	high polyreactivity
QVQLVESGGGLVQAGGSLRLSCAASGSTIGLNAMGWYIQEPGKEREFVAAISVSSGNKYYADSVKGRFTISRDNAKNTVYLQMNSLKPEDTAVYYCAARPRSHYIAQYYYWGQGTHVTVSS	low polyreactivity
QVQLVESGGGLVQAGGSLRLSCAASGSTIGPNAMGSYRQAPGKERELVAAIRSNGGRTYYADSVKGRFTISRDNAKNTVYLQMNSLKPEDTAVYYCAAPHYPYDTPYGYWGQGTQVTVSS	low polyreactivity
QVQLVESGGGLVQAGGSLRLSCAASGSTIGVYAMGWYRQAPGKERELVAAITSGDSTNYADSVKGRFTISRDNAKNTVYLQMYSLKPEDTAVYYCNARQLYYWYYAYDYWGQGTQVTVST	low polyreactivity
QVQLVESGGGLVQAGGSLRLSCAASGSTIIGYTMGWYRQAPGKERELVADISNGGSTNYADSVKGRFTISRDNAKNTVYLQLNSLKPEDTAVYYCNAEAWYYWGWPFFIATYDYWGQGTQVTVSS	low polyreactivity
QVQLVESGGGLVQAGGSLRLSCAASGSTIKPYTMGWYRPAPGKERELVAAITSGGRTYYADSVKGRFTISRDNAKNTVYLQMNSLKPEDTAVYYCNARRYLWLRRYDYWGQGTQVTVSS	high polyreactivity
QVQLVESGGGLVQAGGSLRLSCAASGSTIKYYAMGWYRQAPGKERELVAAINWSGDSTYYADSVKGRFTISRDNAKNTVYLQMNSLKPEDTAVYYCAVRYQKRAYYGSNYWGQGTQVTVSS	high polyreactivity
QVQLVESGGGLVQAGGSLRLSCAASGSTILKYAMGWYRQAPGKERELVAAITSDGTSYADSVKGRFTISRDNAKNTVYLQMNSLKPEDTAVYYCAIDYRHPTFDYWGQGTQVTVSS	low polyreactivity
QVQLVESGGGLVQAGGSLRLSCAASGSTILYYAMGWYRPAPGKERELVAAITWSGGPTYYADSVKGRFTISRDNAKMSGYLLMTSLKPEDTAVYYCNKADPWLRSTALNPGLYDYWGQGTQVTVSS	high polyreactivity
QVQLVESGGGLVQAGGSLRLSCAASGSTINHYAMGWYRQAPGKERELVAAISWSGGSTRYADSVKGRFTISRDNAKNTVYLQMNSLKPEDTAVYYCAARGYGKYYYWGQGTQVTVSS	high polyreactivity
QVQLVESGGGLVQAGGSLRLSCAASGSTINQYPLGWYRQATGKERELVAAITRRGGSTYYADSVKGRFTISRDNAKNTVYLQMNSLKPEDTAVYYCAAAYPYTTVSYDYWGQGTQVTVSS	high polyreactivity
QVQLVESGGGLVQAGGSLRLSCAASGSTINSYTKGWYSQAPRKERELVAAISGSSGRTYDADSVKGRFTISRDNAKNTVYLQMNSLKPEDTAVYYGAAVDLYGGSDYWGQGTQVTVSS	high polyreactivity
QVQLVESGGGLVQAGGSLRLSCAASGSTIPLYAMGWYRQAPGKERELVAAISRRGGRTYYADSVKGRFTISRDYAKNTVYLQMNSLKQEDTAVYYCATAQGSRVDYWGQGTQVTVSS	high polyreactivity
